Source: patent publication US6667052B2, “Transdermal delivery system” (priority 1997, dated 2003)
“Also recorded” adds a separate entry of the source. Counter-ions that a name gives are not always drawn. Like-named read-outs stand apart in the source and are kept apart here.

How the values were obtained:
[1] = tested on: non-fasted rats (Sprague-Dawley strain); assay: In-vivo evaluation of dermally-applied insulin after diethyl maleate (DEM) pretreatment: plasma glucose; design: species or system rat; conditions: FIG. 3
Experimental: Two non-fasted locally-grown rats (Sprague-Dawley strain) were anesthetized (15 mg/ml pentobarbital sodium, 0.2-0.3 ml i.p.). The rats were placed on their back, the abdominal hair was trimmed off, and then the skin was washed gently with distilled water. The animals were maintained with 0.1 ml pentobarbital 15 mg/ml solution to keep them continuously asleep during the experiment. Diethyl maleate, a glutathion depleting agent, was injected intraperitoneally (0.5 ml, 20% v/v ethanolic solution) to one rat only.
Blood sampling and glucose measurement were performed as described in example 5.

[2] = tested on: rats (Sprague-Dawley strain); assay: In-vivo evaluation of dermally-applied insulin with oxidant pretreatment: plasma glucose monitoring; design: species or system rat
[3] = tested on: GSH; conditions: iodine 0.5% to 10% applied; preliminary experiments, FIG. 10
[4] = iodine-pretreated skin exposed for 2 hours to insulin; FIG. 9B
Experimental: The method was performed according to Wroblewski et al (see above) using a reverse phase column (Vydac C18, 250×4.6 mm, 5? m), and a diodearray detector.

[5] = control rats not pretreated with iodine, dermal insulin
[6] = for applied insulin remained in the cylinder: after 3 hours
Source text: Careful attention was paid that the liquid has covered the entire skin area in the cylinder and that no leaking has occurred.

CCOC(=O)/C=C\C(=O)OCC [DEM, Diethyl maleate]
plasma glucose ([1]; DEM 0.5 ml 20% v/v ethanolic solution i.p., then 50 IU Humulin R dermally): abrupt reduction

OO [hydrogen peroxide]
plasma glucose levels ([2]; Example 6: 3 hours oxidant pretreatment (5% silver protein, 0.01% potassium permangnate, 9% hydrogen peroxide or povidone-iodine), then 50 IU Humulin R, FIG. 2): No glucose reduction

II [iodine]
iodine concentration at which minimum level of GSH is obtained [3]: about 2%

insulin: human insulin, applied as Humulin R solution for injection, 0.5 ml equivalent to 50 IU
insulin form found in skin extract (HPLC) [4]: parent insulin was accumulated quantitatively | plasma insulin levels [5]: No elevation | plasma/blood glucose levels ([2]; dermal insulin 50 IU, control rats without oxidant pretreatment): no reduction; also recorded: not influenced; also recorded: almost the same levels with no change | applied insulin remained in the cylinder ([6]; both control and iodine-treated groups): about 77% | applied insulin remained in the cylinder ([6]; control group (first value)): 76.0±6.6% | applied insulin remained in the cylinder ([6]; iodine-treated group): 77.3±7.8% | insulin quantities in the open wells ([6]; initial in vivo studies, insulin-containing wells on rat abdominal skin, no oxidant): significantly decreased | plasma glucose ([1]; rat without DEM, 50 IU Humulin R dermally): decreased relatively slower
